Positions count from the first letter of the chain named. Names may count otherwise.
B1: DIG10.3: DIG10.2 variant with C23S, H90L, V92A, A99Y, S103A, L105W; SEQ ID NO: 15 (protein)
chain: MNAKEIVVHALRLLENGDARGWSDLFHPEGVLEYPYPPPGYKTRFEGRETIWAHMRLFPEYMTIRFTDVQFYETADPDLAIGEFHGDGVLTASGGKLAYDYIAVWRTRDGQILLYRLFFNPLRVLEPLGGVEAAAKIVQGA
modifications: (130)..(141) amino acids are optionally absent
B2: DIG10.3 Y101F: DIG10.3 point mutant, SEQ ID NO: 19 (protein)
chain: B1 chain with Y101F
modifications: (130)..(141) amino acids are optionally absent
B3: DIG10.3 Y34F/Y99F/Y101F: DIG10.3 triple mutant, SEQ ID NO: 22 (protein)
chain: B1 chain with Y34F, Y99F, Y101F
modifications: (130)..(141) amino acids are optionally absent

Assays:
[1] = Fluorescence polarization equilibrium competition binding assay, unlabeled digoxigenin; details: for Ki: steroid Digoxigenin (DIG), PBS pH 7.4, 25° C., read-out: Inhibition Constant (Ki)
Protocol: (§1) Proteins were expressed in E. coli Rosetta 2 (DE3) cells with a C-terminal TEV protease cleavable His6 tag for biochemical assays. For crystallographic analysis of DIG10 variants, a 12-amino acid structurally disordered C-terminus deriving from the scaffold protein 1z1s was replaced directly with a His6 tag. Binding affinities were determined by equilibrium fluorescence polarization^30 on a SpectraMax M5e microplate reader by monitoring the anisotropy of DIG-conjugated Alexa488 as a function of protein concentration. Equilibrium fluorescence polarization competition assays were performed by examining the effect of increasing concentrations of unlabeled DIG, digitoxigenin, progesterone, and β-estradiol on the anisotropy of designed protein-DIG-conjugated Alexa488 complex.
(§2) Fluorescence polarization binding assays. Fluorescence polarization-based affinity measurements of designs and their evolved variants were performed as described^46 using Alexa488-conjugated DIG (DIG-PEG3-Alexa488). Fluorescence anisotropy (r) was measured in 96-well plate format on a SpectraMax M5e microplate reader (Molecular Devices) with λex=485 nM and λem=538 nM using a 515 nm emission cutoff filter. Fluorescence polarization equilibrium competition binding assays were used to determine the binding affinities of DIG10.3 and its variants for unlabeled digoxigenin, digitoxigenin, progesterone, β-estradiol, and digoxin. The inhibition constant for each protein-ligand interaction, Ki, was calculated from the measured total unlabeled ligand producing 50% binding signal inhibition (I50) and the Kd of the protein-label interaction according to a model accounting for receptor-depletion conditions^46.
(§3) Fluorescence polarization equilibrium competition binding assays. Fluorescence polarization equilibrium competition binding assays were used to determine the binding affinities of DIG10.3 and its variants for unlabeled digoxigenin, digitoxigenin, progesterone, β-estradiol, and digoxin. […] Unlabeled stock solutions of digoxigenin, digitoxigenin, progesterone, and β-estradiol were prepared in methanol. Unlabeled stock solutions of digoxin were prepared in DMSO. Ligand stock solutions were 10 mM for DIG, digitoxigenin, and digoxin, and 1 mM for progesterone and β-estradiol. For each ligand concentration, a negative control sample containing only DIG-PEG3-Alexa488 and the appropriate dilution of a corresponding methanol-only control solution in PBS was measured.
(§4) Fluorescence anisotropy (r) was measured as noted above. In all experiments, PBS (pH 7.4) was used as the buffer system and the temperature was 25° C. The concentration of total unlabeled ligand producing 50% binding signal inhibition (I50) was determined by fitting a plot of the anisotropy averaged over a period of 30 min to 3 hr after reaction initiation versus unlabeled ligand concentration as described previously^47. For some experiments, limiting steroid concentrations made it impossible to collect data in the regime of complete inhibition. In these cases, data were fit by fixing the anisotropy at infinite steroid concentration to a value measured for other steroids for which this value could be determined experimentally. […]
The inhibition constant for each protein-ligand interaction, Ki, was calculated from the measured IC50 and the Kd of the protein-label interaction according to a model accounting for receptor-depletion conditions^47. […]

[2] = Fluorescence polarization equilibrium competition binding assay, unlabeled digitoxigenin; details: steroid digitoxigenin; PBS pH 7.4, 25° C.; read-out: Inhibition Constant (Ki)
Protocol: as §1
as §2, with “The inhibition constant for each protein-ligand interaction, Ki, was calculated from the measured total unlabeled ligand producing 50% binding signal inhibition (I50) and the Kd of the protein-label interaction according to a model accounting for receptor-depletion conditions^46.” left out
(§5) Fluorescence polarization equilibrium competition binding assays. Fluorescence polarization equilibrium competition binding assays were used to determine the binding affinities of DIG10.3 and its variants for unlabeled digoxigenin, digitoxigenin, progesterone, β-estradiol, and digoxin. […] For each ligand concentration, a negative control sample containing only DIG-PEG3-Alexa488 and the appropriate dilution of a corresponding methanol-only control solution in PBS was measured.
(§6) Fluorescence anisotropy (r) was measured as noted above. […]

[3] = Fluorescence polarization equilibrium competition binding assay, unlabeled progesterone; details: steroid progesterone; PBS pH 7.4, 25° C.; read-out: Inhibition Constant (Ki)
Protocol: as §1
as §2, with “The inhibition constant for each protein-ligand interaction, Ki, was calculated from the measured total unlabeled ligand producing 50% binding signal inhibition (I50) and the Kd of the protein-label interaction according to a model accounting for receptor-depletion conditions^46.” left out
as §5, §6

[4] = Fluorescence polarization equilibrium competition binding assay, unlabeled β-estradiol; details: steroid β-estradiol; PBS pH 7.4, 25° C.; read-out: Inhibition Constant (Ki)
Protocol: as §1
as §2, with “The inhibition constant for each protein-ligand interaction, Ki, was calculated from the measured total unlabeled ligand producing 50% binding signal inhibition (I50) and the Kd of the protein-label interaction according to a model accounting for receptor-depletion conditions^46.” left out
as §5, §6

[5] = Fluorescence polarization equilibrium competition binding assay, unlabeled digoxin
Protocol: as §2
as §3, with “Ligand stock solutions were 10 mM for DIG, digitoxigenin, and digoxin, and 1 mM for progesterone and β-estradiol.” left out
as §4, with “In all experiments, PBS (pH 7.4) was used as the buffer system and the temperature was 25° C.” left out, “For some experiments, limiting steroid concentrations made it impossible to collect data in the regime of complete inhibition.” left out

Molecule | DIG binding affinity relative to widely used anti-DIG antibodies [1] | affinity for DIG (in words) [1] | Ki [1] [nM] | Ki [2] [nM] | Ki [3] [nM] | Ki [4] [nM] | affinity for digoxin (in words) [5] | affinity for digoxin compared with DIG ([5]; competition FP) | Ki ([5]; steroid digoxin, PBS pH 7.4, 25° C., read-out: Inhibition Constant (Ki)) [nM]
B1 | within a factor of two | picomolar affinity | 0.653 ± 0.262 | 19 ± 7 | 243 ± 91 | 2100 ± 800 | picomolar affinity | slightly higher than that for DIG | 0.223 ± 0.105
B2 | – | – | 39 ± 8 | < 3.8 | 30 ± 9 | 1700 ± 400 | – | – | –
B3 | – | – | 580 ± 229 | < 16 | < 17 | 1600 ± 600 | – | – | –
